# Experimental data: article PMC7251119 (Nature Communications, 2020)
# T1: SetA (Legionella pneumophila, UniProt Q5ZU30 1-644)
# T1 sequence: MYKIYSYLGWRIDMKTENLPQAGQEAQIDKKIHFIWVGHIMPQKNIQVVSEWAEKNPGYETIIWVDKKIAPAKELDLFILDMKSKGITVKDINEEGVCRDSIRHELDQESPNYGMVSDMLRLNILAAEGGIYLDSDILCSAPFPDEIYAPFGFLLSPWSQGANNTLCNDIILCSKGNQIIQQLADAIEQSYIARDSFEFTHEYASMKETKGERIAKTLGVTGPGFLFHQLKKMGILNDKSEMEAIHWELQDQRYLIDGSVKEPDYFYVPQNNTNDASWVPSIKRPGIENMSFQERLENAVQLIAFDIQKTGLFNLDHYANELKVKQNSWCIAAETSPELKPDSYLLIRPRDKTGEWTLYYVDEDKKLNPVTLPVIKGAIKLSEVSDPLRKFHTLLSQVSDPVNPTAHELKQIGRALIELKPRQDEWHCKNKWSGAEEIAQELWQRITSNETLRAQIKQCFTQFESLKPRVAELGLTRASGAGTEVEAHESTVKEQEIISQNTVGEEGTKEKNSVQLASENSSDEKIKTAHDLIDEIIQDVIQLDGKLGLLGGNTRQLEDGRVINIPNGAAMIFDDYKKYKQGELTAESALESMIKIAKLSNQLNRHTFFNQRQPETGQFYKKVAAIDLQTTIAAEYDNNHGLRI
# B1: (His)10-MBP-DotL(656-783)–IcmSW–LvgA (complex)
# chain 1: GQNEPEPVEDIVEEEVEGALTIFSKLRIDPNAPPILVADKEVFSEPLLPINETRNQMITIERLAGAKDKYAGTVANELIKDFQIATSYPPEERDVIDVQELTGIIRDLSAKISAEREKANKKAAEELT
# chain 2: MERDISKCMAKIAASMNAKFYLNDRFVSFDEVFSETGLLPAIAKRADQLCSLCLGYGLGATYDESEGALLGIRVVFDEVTPNVLRLLCMTDVMNELIQGGPSRDYTPLDELMYD
# chain 3: MPDLSHEASAKYWFEYLDPMIYRVITFMESVENWTLDGNPELEEAMKQLGQELDDIEKIDLGLLAEEDKFIRIVGNIKSGRGLRLLQAIDTVHPGSASRVLIHAEETSLSSSDPAGFFLKRNIVFERLRLLSRVFCQYRLKLVLRALEGDE
# chain 4: MADGDIEIKAGFVDTDLDDRKLTMIDDLNNPLAIVERVYLIWWHWADFHLHVISPHIDTITPAIVIEPELIPGSNDHEFVYSIHDSGSKLSTSKSQDMFSAGMSMCKLFYTIEKMVYILVERLKSGGVSMEAEVQIAFAGHEIAQRKAFESIINLPYNVVVTNFDPGIWGEKYLQNVKRLADKGYGYPPESPRKIYMHPVSSGTTARK
# notes: copies: + + +
# Tests used:
# [1] = target: the molecule itself; experiment: SEC; […]; 20 mM Tris-HCl (pH 7.5) plus 100 mM NaCl or 300 mM NaCl; […]
# [2] = target: B1; experiment: native gel or EMSA; details: both partners purified
# [3] = target: T1, SetA; experiment: native gel or EMSA; details: both partners purified
# [4] = target: VpdB(11-590) (Legionella pneumophila, UniProt Q5ZW60 11-590); experiment: BLI; details: both partners purified
binder,measurement,setting,value
"SetA(480-644) (domain or fragment) GAGTEVEAHESTVKEQEIISQNTVGEEGTKEKNSVQLASENSSDEKIKTAHDLIDEIIQDVIQLDGKLGLLGGNTRQLEDGRVINIPNGAAMIFDDYKKYKQGELTAESALESMIKIAKLSNQLNRHTFFNQRQPETGQFYKKVAAIDLQTTIAAEYDNNHGLRI [SetA(480-644), listing 1 of 2 here]",stoichiometry N,[1],2
"SetA(480-644) (domain or fragment) GAGTEVEAHESTVKEQEIISQNTVGEEGTKEKNSVQLASENSSDEKIKTAHDLIDEIIQDVIQLDGKLGLLGGNTRQLEDGRVINIPNGAAMIFDDYKKYKQGELTAESALESMIKIAKLSNQLNRHTFFNQRQPETGQFYKKVAAIDLQTTIAAEYDNNHGLRI [SetA(480-644), listing 2 of 2 here]",binding result,[2],binds
B1,binding result,[3],binds
same,Kd,[4],~400 nM
ENETLVSSFKQRLQNIKG [(His)10-YFP-SidH(2183-2200)],binding result,[2],binds
